Data published in the Immune Epitope Database (IEDB).
Values belong to the sequence of their own block, whether it stands above or below them.

Columns and labels:
HLA-A*02:50 = assay: IEDB peptide-MHC binding, purified MHC/competitive/fluorescence; filed as Kd, often an IC50 or EC50 that approximates it; ≥ and ≤ were set here for values at or beyond the usual limits of such assays
HLA-A*01:01 [1] = assay: IEDB peptide-MHC binding, purified MHC/direct/fluorescence; filed as Kd, often an IC50 or EC50 that approximates it; ≥ and ≤ were set here for values at or beyond the usual limits of such assays
HLA-A*69:01 [2] = assay: as above
HLA-A*26:01 = assay: as above
HLA-A*31:01 [3] = assay: as above
HLA-B*58:01 [4] = assay: as above
HLA-B*27:05 = assay: as above
HLA-A*03:01 = assay: as above
HLA-B*44:02 = assay: as above
HLA-B*15:01 [5] = assay: as above
HLA-A*02:01 = assay: as above
HLA-B*08:01 [6] = assay: as above
HLA-A*11:01 [7] = assay: as above
HLA-B*07:02 = assay: as above
HLA-B*40:01 = assay: as above
HLA-A*24:02 = assay: as above; settings: source organism: Escherichia coli O157:H7
HLA-B*18:01 [8] = assay: as above; settings: source organism: Escherichia coli O157:H7
HLA-C*03:03 = assay: as above; settings: source organism: Escherichia coli O157:H7 str. EDL933
HLA-A*01:01 [9] = assay: IEDB peptide-MHC binding, purified MHC/competitive/fluorescence; filed as Kd, often an IC50 or EC50 that approximates it; ≥ and ≤ were set here for values at or beyond the usual limits of such assays; settings: source organism: Human immunodeficiency virus 1
HLA-A*69:01 [10] = assay: as above
HLA-B*15:17 [11] = assay: as above; settings: source organism: Human immunodeficiency virus 1
HLA-A*31:01 [12] = assay: as above; settings: source organism: Human immunodeficiency virus 1
HLA-B*58:01 [13] = assay: as above; settings: source organism: Human immunodeficiency virus 1
HLA-B*35:01 [14] = assay: as above; settings: source organism: Human immunodeficiency virus 1
HLA-A*02:06 = assay: as above
HLA-A*68:02 = assay: as above
HLA-B*18:01 [15] = assay: as above; settings: source organism: Human immunodeficiency virus 1
HLA-A*26:02 = assay: as above
HLA-B*57:01 [16] = assay: as above; settings: source organism: Human immunodeficiency virus 1
HLA-A*30:01 = assay: as above; settings: source organism: Human immunodeficiency virus 1
HLA-B*39:01 = assay: as above; settings: source organism: Human immunodeficiency virus 1
HLA-A*02:03 = assay: as above; settings: source organism: Human immunodeficiency virus 1
HLA-B*08:01 [17] = assay: as above; settings: source organism: Human immunodeficiency virus 1
HLA-A*11:01 [18] = assay: as above; settings: source organism: Human immunodeficiency virus 1
HLA-B*15:01 [19] = assay: as above; settings: source organism: Escherichia coli
HLA-B*15:17 [20] = assay: IEDB peptide-MHC binding, purified MHC/direct/fluorescence; filed as Kd, often an IC50 or EC50 that approximates it; ≥ and ≤ were set here for values at or beyond the usual limits of such assays; settings: source organism: Escherichia coli O157:H7
HLA-B*46:01 = assay: as above
HLA-B*57:01 [21] = assay: as above; settings: source organism: Escherichia coli O157:H7
HLA-B*48:01 = assay: as above; settings: source organism: Escherichia coli O157:H7
HLA-B*15:02 = assay: as above
HLA-B*35:01 [22] = assay: as above
HLA-A*02:16 = assay: as above; settings: source organism: Mycobacterium tuberculosis
[23] = source organism: Giardia lamblia ATCC 50803
[24] = source organism: Escherichia coli O157:H7
[25] = source organism: Human immunodeficiency virus 1
[26] = source organism: Escherichia coli
[27] = source organism: Vibrio vulnificus
[28] = source organism: Mycobacterium tuberculosis
[29] = source organism: Listeria monocytogenes
[30] = source organism: Listeria monocytogenes serotype 4b str. H7858

Sequence: LLPYPIAGC
- Kd (HLA-A*02:50; source organism: Giardia intestinalis ATCC 50581): 0.0235 µM
- Kd (HLA-A*01:01 [1]; [23]): ≥ 20 µM
- Kd (HLA-A*69:01 [2]; [23]): 4.2 µM
- Kd (HLA-A*26:01; [23]): ≥ 20 µM
- Kd (HLA-A*31:01 [3]; [23]): ≥ 20 µM
- Kd (HLA-B*58:01 [4]; [23]): ≥ 20 µM
- Kd (HLA-B*27:05; [23]): ≥ 20 µM
- Kd (HLA-A*03:01; [23]): ≥ 20 µM
- Kd (HLA-B*44:02; [23]): ≥ 20 µM
- Kd (HLA-B*15:01 [5]; [23]): ≥ 20 µM
- Kd (HLA-A*02:01; [23]): 5.1 µM
- Kd (HLA-B*08:01 [6]; [23]): ≥ 20 µM
- Kd (HLA-A*11:01 [7]; [23]): ≥ 20 µM
- Kd (HLA-B*07:02; [23]): ≥ 20 µM
- Kd (HLA-B*40:01; [23]): ≥ 20 µM

- Kd (HLA-A*02:50; source organism: Escherichia coli O157:H7 str. EDL933): ≤ 0.0001 µM
- Kd (HLA-A*01:01 [1]; [24]): ≥ 20 µM
- Kd (HLA-A*69:01 [2]; [24]): 0.0036 µM
- Kd (HLA-B*58:01 [4]; [24]): ≥ 20 µM
- Kd (HLA-A*24:02): ≥ 20 µM
- Kd (HLA-B*18:01 [8]): ≥ 20 µM
- Kd (HLA-B*27:05; [24]): ≥ 20 µM
- Kd (HLA-A*03:01; [24]): ≥ 20 µM
- Kd (HLA-B*44:02; [24]): ≥ 20 µM
- Kd (HLA-C*03:03): ≥ 20 µM
- Kd (HLA-B*15:01 [5]; [24]): 1.71 µM
- Kd (HLA-A*02:01; [24]): 0.0021 µM
- Kd (HLA-A*11:01 [7]; [24]): ≥ 20 µM
- Kd (HLA-B*07:02; [24]): ≥ 20 µM
- Kd (HLA-B*40:01; [24]): ≥ 20 µM
Sequence: YLFQWNDNV

Sequence: KSLFNTVATLY
- Kd (HLA-A*01:01 [9]): 2.11 µM
- Kd (HLA-A*69:01 [10]; [25]): 2.84 µM
- Kd (HLA-B*15:17 [11]): 0.0038 µM
- Kd (HLA-A*31:01 [12]): ≥ 20 µM
- Kd (HLA-B*58:01 [13]): 0.0028 µM
- Kd (HLA-B*35:01 [14]): 2.41 µM
- Kd (HLA-A*02:06; [25]): 0.155 µM
- Kd (HLA-A*68:02; [25]): 3.47 µM
- Kd (HLA-B*18:01 [15]): 0.242 µM
- Kd (HLA-A*26:02; [25]): ≥ 20 µM
- Kd (HLA-B*57:01 [16]): 0.235 µM
- Kd (HLA-A*30:01): ≥ 20 µM
- Kd (HLA-B*39:01): ≥ 20 µM
- Kd (HLA-A*02:03): 0.19 µM
- Kd (HLA-B*08:01 [17]): ≥ 20 µM
- Kd (HLA-A*11:01 [18]): 0.233 µM

- Kd (HLA-A*69:01 [10]; [26]): ≥ 20 µM
- Kd (HLA-A*02:06; [26]): 0.846 µM
- Kd (HLA-A*68:02; [26]): ≥ 20 µM
- Kd (HLA-A*26:02; [26]): ≥ 20 µM
- Kd (HLA-B*15:01 [19]): 0.863 µM
- Kd (HLA-A*01:01 [1]; [24]): ≥ 20 µM
- Kd (HLA-B*15:17 [20]): ≥ 20 µM
- Kd (HLA-A*31:01 [3]; [24]): ≥ 20 µM
- Kd (HLA-B*58:01 [4]; [24]): ≥ 20 µM
- Kd (HLA-B*46:01; [24]): ≥ 20 µM
- Kd (HLA-B*57:01 [21]): ≥ 20 µM
- Kd (HLA-B*27:05; [24]): ≥ 20 µM
- Kd (HLA-A*03:01; [24]): ≥ 20 µM
- Kd (HLA-B*48:01): ≥ 20 µM
- Kd (HLA-A*02:01; [24]): ≥ 20 µM
- Kd (HLA-A*11:01 [7]; [24]): ≥ 20 µM
- Kd (HLA-B*07:02; [24]): ≥ 20 µM
- Kd (HLA-B*40:01; [24]): ≥ 20 µM
Sequence: EQRLIDICV

Sequence: IQTHCEVGY
- Kd (HLA-A*01:01 [1]; [27]): ≥ 20 µM
- Kd (HLA-B*15:02; [27]): ≥ 20 µM
- Kd (HLA-A*69:01 [2]; [27]): ≥ 20 µM
- Kd (HLA-A*26:01; [27]): ≥ 20 µM
- Kd (HLA-A*31:01 [3]; [27]): ≥ 20 µM
- Kd (HLA-B*58:01 [4]; [27]): ≥ 20 µM
- Kd (HLA-B*35:01 [22]; [27]): 0.94 µM
- Kd (HLA-B*46:01; [27]): ≥ 20 µM
- Kd (HLA-B*27:05; [27]): ≥ 20 µM
- Kd (HLA-A*03:01; [27]): ≥ 20 µM
- Kd (HLA-B*44:02; [27]): ≥ 20 µM
- Kd (HLA-B*15:01 [5]; [27]): 0.285 µM
- Kd (HLA-A*02:01; [27]): ≥ 20 µM
- Kd (HLA-B*08:01 [6]; [27]): ≥ 20 µM
- Kd (HLA-A*11:01 [7]; [27]): ≥ 20 µM
- Kd (HLA-B*07:02; [27]): ≥ 20 µM
- Kd (HLA-B*40:01; [27]): ≥ 20 µM

Sequence: LLLRPFWPA
- Kd (HLA-A*02:50; [28]): 0.0091 µM
- Kd (HLA-A*69:01 [2]; [28]): 0.0303 µM
- Kd (HLA-A*02:01; [28]): 0.113 µM
- Kd (HLA-A*02:16): 0.01 µM

Sequence: LMKAPGTYH
- Kd (HLA-B*15:02; [29]): 0.258 µM
- Kd (HLA-B*35:01 [22]; [30]): ≥ 20 µM
- Kd (HLA-B*46:01; [29]): 4.83 µM
- Kd (HLA-B*15:01 [5]; [29]): 0.0668 µM
- Kd (HLA-B*07:02; [30]): ≥ 20 µM
